Assay results: PMC5374433, “Theranostic Value of Multimers: Lessons Learned from Trimerization of Neurotensin Receptor Ligands and Other Targeting Vectors” (Pharmaceuticals, 2017)
Where two headings read alike, the source gives them in different places.

Experiments:
[1] = Biodistribution in HT29 tumor-bearing nude mice; assay type: in vivo, mouse; conditions: mouse; for tissue uptake at 1.5 h / tissue uptake at 1 h: in vivo
Method: (§1) For in vivo evaluation of [^68Ga]Ga-TRAP(NT4)3 the NTS1-positive human colorectal adenocarcinoma cells HT29 were injected in nude mice to generate a subcutaneous tumor. The radioligand was injected in the tail vein of the mice and the biodistribution was determined 60 and 90 min after tracer injection. […] The clearance rate of [^68Ga]Ga-TRAP(NT4)3 in these excretion organs was apparently low. […] (1.44 %ID/g). Blocking experiments were performed to confirm the specificity of the tumor uptake of [^68Ga]Ga-TRAP(NT4)3 in vivo. Therefore, TRAP(NT4)3 (20 nmol) or NT4 (100 nmol) were co-injected together with the radiotracer to define the nonspecific uptake of the tracer in the tumor region. […] Apart from the intestine, the uptake in all other organs was not affected by the blocking substances (Table 2), confirming the receptor-mediated uptake of [^68Ga]Ga-TRAP(NT4)3, as it was reported that NTS receptors are expressed in the small intestine of mice.
(§2) All animal experiments were performed in compliance with the protocols approved by the local Animal Protection Authorities (Regierung Mittelfranken, Germany, no. 54-2532.1-15/08). Female athymic NMRI nude mice (nu/nu) were obtained from Harlan Winkelmann GmbH (Borchen, Germany) at four weeks of age and were kept under standard conditions (12 h light/dark) with food and water available ad libitum for at least five weeks. HT29 tumors were generated as described before.
(§3) HT29 xenografted nude mice were injected with [^68Ga]Ga-TRAP(NT4)3 into a tail vein (2.5–7.5 MBq/mouse). The animals were killed by cervical dislocation 60 or 90 min p.i. The tumors, other tissues (lung, liver, kidneys, heart, spleen, brain, muscle, femur, and intestine) and blood were removed and weighed. Radioactivity of the samples was measured using a γ-counter and expressed as the percentage of injected dose per gram of tissue (%ID/g), from which tumor-to-blood ratios were calculated. Blocking experiments were carried out by co-injecting randomly chosen mice with TRAP(NT4)3 (20 nmol/mouse) or NT4 (100 nmol/mouse) together with the radiotracer. These mice were killed by cervical dislocation at 60 min p.i., and organs and tissue were removed, weighed, and counted as described above.

[2] = test system: HT29 xenografted nude mice; experiment: Biodistribution in HT29 tumor-bearing nude mice; assay type: in vivo, mouse
Method: as §1, §2, §3

[3] = Small animal PET imaging of HT29 tumor-bearing mice; conditions: mouse, in vivo, molar radioactivities of more than 20 MBq/nmol, read-out: highest tumor uptake values by PET
Method: The highest tumor uptake values of approximately 2 %ID/g were determined with molar radioactivities of more than 20 MBq/nmol. […] Considering all eight mice, which were repeatedly measured by PET with varying molar radioactivities of [^68Ga]Ga-TRAP(NT4)3, a good correlation of molar radioactivity and tumor uptake could be observed (Figure 4b; r = 0.713, Spearman correlation, p < 0.0004).
PET scans and image analysis were performed using a small-animal PET scanner (Inveon, Siemens Medical Solutions, Erlangen, Germany). About 1.5–4 MBq of [^68Ga]Ga-TRAP(NT4)3 with varying amounts of 0.02–10 nmol TRAP(NT4)3 were intravenously injected into the mice under isoflurane anesthesia (4%). Animals were subjected to a 60 min dynamic scan starting with tracer injection. After iterative maximum a posteriori image reconstruction of the decay- and attenuation-corrected images, regions of interest (ROIs) were drawn over the tumor. The radioactivity concentration within the tumor region was obtained from the mean value within the multiple ROIs and then converted to SUV relative to the injected dose and the individual body weight.

human NTS1 = human NTS1 (Homo sapiens, UniProt P30989); experiment: Competitive radioligand binding assay, NTS1; conditions: Ki (NTS1, nM), membranes of CHO cells stably expressing human NTS1; mean ± SEM, 4-8 experiments
human NTS1, sequence (P30989 whole entry): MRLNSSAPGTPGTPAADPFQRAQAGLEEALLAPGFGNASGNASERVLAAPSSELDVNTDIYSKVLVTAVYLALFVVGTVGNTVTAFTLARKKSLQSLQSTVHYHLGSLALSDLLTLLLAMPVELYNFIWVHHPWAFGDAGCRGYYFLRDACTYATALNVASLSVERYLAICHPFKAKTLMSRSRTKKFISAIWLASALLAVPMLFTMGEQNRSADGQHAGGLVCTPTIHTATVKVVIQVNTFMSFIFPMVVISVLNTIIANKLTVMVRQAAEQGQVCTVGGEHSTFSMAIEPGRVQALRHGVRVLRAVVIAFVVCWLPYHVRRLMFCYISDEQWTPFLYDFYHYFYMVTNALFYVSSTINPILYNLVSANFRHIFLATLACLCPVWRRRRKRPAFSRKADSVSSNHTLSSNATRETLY
Method: Receptor binding data were performed as described previously. […] NTS2 binding was conducted using homogenates of membranes from HEK 293 cells transiently transfected with pcDNA3.1 carrying the human NTS2 gene (Missouri S&T cDNA Resource Center (UMR), Rolla, MO, USA) using the Mirus TransIT-293 transfection reagent (MoBiTec, Göttingen, Germany) according to the manufacturer’s protocol.
Data analysis of the competition binding curves from the radioligand displacement experiments was done by non-linear regression analysis when applying the algorithms of the PRISM 6.0 software package (GraphPad Software, San Diego, CA, USA). EC50 values were derived from each dose-response curve and were subsequently transformed into the corresponding Ki values by applying the equation of Cheng and Prusoff. Mean Ki values and the corresponding S.E.M. values (standard error of the mean) were determined by analyzing four to eight individual experiments.

[4] = assay type: in vivo; conditions: mouse blood sample taken 5 min after injection, HPLC
Method: The in vivo stability of [^68Ga]Ga-TRAP(NT4)3 was measured from a blood sample taken 5 min after injection in mice. […] Unfortunately, it was not possible to determine the stability at later time points due to the low amount of residual radioactivity in the blood.

CC(C)C[C@H](NC(=O)[C@@H](NC(=O)[C@H](Cc1ccc(O)cc1)NC(=O)[C@@H]1CCCN1C(=O)[C@H](CCCCN)NC(=O)CN(CCCCN)C(=O)[C@@H](N)CCCCn1cc(CNC(=O)CCP(=O)(O)CN2CCN(CP(=O)(O)CCC(=O)NCc3cn(CCCC[C@H](N)C(=O)N(CCCCN)CC(=O)N[C@@H](CCCCN)C(=O)N4CCC[C@H]4C(=O)N[C@@H](Cc4ccc(O)cc4)C(=O)N[C@H](C(=O)N[C@@H](CC(C)C)C(=O)O)C(C)(C)C)nn3)CCN(CP(=O)(O)CCC(=O)NCc3cn(CCCC[C@H](N)C(=O)N(CCCCN)CC(=O)N[C@@H](CCCCN)C(=O)N4CCC[C@H]4C(=O)N[C@@H](Cc4ccc(O)cc4)C(=O)N[C@H](C(=O)N[C@@H](CC(C)C)C(=O)O)C(C)(C)C)nn3)CC2)nn1)C(C)(C)C)C(=O)O (single isomer, unassigned) [[^68Ga]Ga-TRAP(NT4)3, metal not drawn]
tissue to tissue ratio at 1 h ([1]; female, athymic NMRI nude (nu/nu), HT29 tumor / blood, iv, total radioactivity, 60 min p.i.): 13 | tissue to tissue ratio at 1.5 h ([1]; female, athymic NMRI nude (nu/nu), HT29 tumor / blood, iv, total radioactivity, 90 min p.i.): 36 | SUV at 1 h ([1]; female, athymic NMRI nude (nu/nu), HT29 tumor, iv, total radioactivity, 60 min p.i., equals 1.7 %ID/g): ~0.7 SUV | tissue uptake at 1.5 h ([1]; 60 and 90 min p.i., read-out: uptake in the liver): 11 to 12 %ID/g | tissue uptake at 1.5 h ([1]; 60 and 90 min p.i., read-out: uptake values in the kidneys): 55 to 102 %ID/g | tissue uptake at 1 h ([1]; 60 min p.i., blocking: co-injection of NT4 (100 nmol per mouse), read-out: HT29 tumor uptake): 0.6 ± 0.13 %ID/g | tissue uptake at 1 h ([1]; 60 min p.i., blocking: co-injection of NT4 (100 nmol per mouse), read-out: blood uptake): 0.4 ± 0.01 %ID/g | tissue uptake at 1 h ([1]; 60 min p.i., blocking: co-injection of NT4 (100 nmol per mouse), read-out: brain uptake): 0.07 ± 0.02 %ID/g | tissue uptake at 1 h ([1]; 60 min p.i., blocking: co-injection of NT4 (100 nmol per mouse), read-out: femur uptake): 1.72 ± 0.12 %ID/g | tissue uptake at 1 h ([1]; 60 min p.i., blocking: co-injection of NT4 (100 nmol per mouse), read-out: heart uptake): 0.45 ± 0.13 %ID/g | tissue uptake at 1 h ([1]; 60 min p.i., blocking: co-injection of NT4 (100 nmol per mouse), read-out: intestine uptake): 0.49 ± 0.07 %ID/g | tissue uptake at 1 h ([1]; 60 min p.i., blocking: co-injection of NT4 (100 nmol per mouse), read-out: kidney uptake): 99.9 ± 15.5 %ID/g | tissue uptake at 1 h ([1]; 60 min p.i., blocking: co-injection of NT4 (100 nmol per mouse), read-out: liver uptake): 11.2 ± 2.27 %ID/g | tissue uptake at 1 h ([1]; 60 min p.i., blocking: co-injection of NT4 (100 nmol per mouse), read-out: lung uptake): 6.06 ± 1.19 %ID/g | tissue uptake at 1 h ([1]; 60 min p.i., blocking: co-injection of NT4 (100 nmol per mouse), read-out: muscle uptake): 0.16 ± 0.03 %ID/g | tissue uptake at 1 h ([1]; 60 min p.i., blocking: co-injection of NT4 (100 nmol per mouse), read-out: spleen uptake): 3.75 ± 0.81 %ID/g | tissue uptake at 1 h ([1]; 60 min p.i., blocking: co-injection of TRAP(NT4)3 (20 nmol per mouse), read-out: HT29 tumor uptake): 1.1 ± 0.2 %ID/g | tissue uptake at 1 h ([1]; 60 min p.i., blocking: co-injection of TRAP(NT4)3 (20 nmol per mouse), read-out: blood uptake): 0.07 ± 0.01 %ID/g | tissue uptake at 1 h ([1]; 60 min p.i., blocking: co-injection of TRAP(NT4)3 (20 nmol per mouse), read-out: brain uptake): 0.06 ± 0.07 %ID/g | tissue uptake at 1 h ([1]; 60 min p.i., blocking: co-injection of TRAP(NT4)3 (20 nmol per mouse), read-out: femur uptake): 0.74 ± 0.14 %ID/g | tissue uptake at 1 h ([1]; 60 min p.i., blocking: co-injection of TRAP(NT4)3 (20 nmol per mouse), read-out: heart uptake): 0.15 ± 0.11 %ID/g | tissue uptake at 1 h ([1]; 60 min p.i., blocking: co-injection of TRAP(NT4)3 (20 nmol per mouse), read-out: intestine uptake): 0.49 ± 0.08 %ID/g | tissue uptake at 1 h ([1]; 60 min p.i., blocking: co-injection of TRAP(NT4)3 (20 nmol per mouse), read-out: kidney uptake): 96.3 ± 8.83 %ID/g | tissue uptake at 1 h ([1]; 60 min p.i., blocking: co-injection of TRAP(NT4)3 (20 nmol per mouse), read-out: liver uptake): 8.3 ± 0.87 %ID/g | tissue uptake at 1 h ([1]; 60 min p.i., blocking: co-injection of TRAP(NT4)3 (20 nmol per mouse), read-out: lung uptake): 1.61 ± 0.42 %ID/g | tissue uptake at 1 h ([1]; 60 min p.i., blocking: co-injection of TRAP(NT4)3 (20 nmol per mouse), read-out: muscle uptake): 0.1 ± 0.05 %ID/g | tissue uptake at 1 h ([1]; 60 min p.i., blocking: co-injection of TRAP(NT4)3 (20 nmol per mouse), read-out: spleen uptake): 2.2 ± 0.39 %ID/g | tissue uptake at 1 h ([1]; 60 min p.i., read-out: HT29 tumor uptake): 1.7 %ID/g | tissue uptake at 1 h ([1]; 60 min p.i., read-out: blood uptake): 0.13 ± 0.02 %ID/g | tissue uptake at 1 h ([1]; 60 min p.i., read-out: brain uptake): 0.04 ± 0.01 %ID/g | tissue uptake at 1 h ([1]; 60 min p.i., read-out: femur uptake): 1.51 ± 0.12 %ID/g | tissue uptake at 1 h ([1]; 60 min p.i., read-out: heart uptake): 0.13 ± 0.02 %ID/g | tissue uptake at 1 h ([1]; 60 min p.i., read-out: intestine uptake): 1.5 ± 0.42 %ID/g | tissue uptake at 1 h ([1]; 60 min p.i., read-out: kidney uptake): 94.5 ± 10.8 %ID/g | tissue uptake at 1 h ([1]; 60 min p.i., read-out: liver uptake): 11.2 ± 0.3 %ID/g | tissue uptake at 1 h ([1]; 60 min p.i., read-out: lung uptake): 2.76 ± 0.53 %ID/g | tissue uptake at 1 h ([1]; 60 min p.i., read-out: muscle uptake): 0.09 ± 0.03 %ID/g | tissue uptake at 1 h ([1]; 60 min p.i., read-out: spleen uptake): 3.72 ± 0.09 %ID/g | tissue uptake at 1.5 h ([1]; 90 min p.i., read-out: HT29 tumor uptake): 1.44 ± 0.13 %ID/g | tissue uptake at 1.5 h ([1]; 90 min p.i., read-out: blood uptake): 0.04 ± 0.02 %ID/g | tissue uptake at 1.5 h ([1]; 90 min p.i., read-out: brain uptake): 0.02 ± 0.01 %ID/g | tissue uptake at 1.5 h ([1]; 90 min p.i., read-out: femur uptake): 1.17 ± 0.21 %ID/g | tissue uptake at 1.5 h ([1]; 90 min p.i., read-out: heart uptake): 0.35 ± 0.37 %ID/g | tissue uptake at 1.5 h ([1]; 90 min p.i., read-out: intestine uptake): 1.31 ± 0.2 %ID/g | tissue uptake at 1.5 h ([1]; 90 min p.i., read-out: kidney uptake): 102 ± 29.9 %ID/g | tissue uptake at 1.5 h ([1]; 90 min p.i., read-out: liver uptake): 11.7 ± 0.48 %ID/g | tissue uptake at 1.5 h ([1]; 90 min p.i., read-out: lung uptake): 2.37 ± 0.21 %ID/g | tissue uptake at 1.5 h ([1]; 90 min p.i., read-out: muscle uptake): 0.11 ± 0.08 %ID/g | tissue uptake at 1.5 h ([1]; 90 min p.i., read-out: spleen uptake): 3.45 ± 0.38 %ID/g | HT29 tumor uptake ([2]; 60 min p.i.): 1.74 ± 0.21 %ID/g | tumor uptake compared to monomeric analogs ([2]; HT29 tumor): two-fold | tissue uptake [3]: ~2 %ID/g | Ki (human NTS1): 0.1 nM | formation of a more hydrophilic radiometabolite [4]: 8%
